Experimental data as given in patent EP4745153A1, “GLP-1, GIP AND GCG RECEPTOR […] USE THEREOF” (Jiangsu Hengrui Pharmaceuticals Co., Ltd., priority 2023, dated 2025).
Starred links: 1 amine or outer side, 2 acyl side, 3 side chain; linkers in the order of their positions; H or OH if unused. Non-standard residues stand in square brackets, D forms with d. Groups on a side chain read outwards from the residue. No end group written: not given here. *: point of attachment. C20 diacid = O=C(O)CCCCCCCCCCCCCCCCCCC(=O)*; γGlu = O=C(O)[C@H](CCC(=O)[*:2])N[*:1]; αMeL = CC(C)C[C@](C)(N)C(=O)O; AEEA = NCCOCCOCC(=O)O; Aib = CC(C)(N)C(=O)O

T1: human glucose-dependent insulinotropic polypeptide receptor (human, UniProt P48546 22-466)
T1 sequence (looked up): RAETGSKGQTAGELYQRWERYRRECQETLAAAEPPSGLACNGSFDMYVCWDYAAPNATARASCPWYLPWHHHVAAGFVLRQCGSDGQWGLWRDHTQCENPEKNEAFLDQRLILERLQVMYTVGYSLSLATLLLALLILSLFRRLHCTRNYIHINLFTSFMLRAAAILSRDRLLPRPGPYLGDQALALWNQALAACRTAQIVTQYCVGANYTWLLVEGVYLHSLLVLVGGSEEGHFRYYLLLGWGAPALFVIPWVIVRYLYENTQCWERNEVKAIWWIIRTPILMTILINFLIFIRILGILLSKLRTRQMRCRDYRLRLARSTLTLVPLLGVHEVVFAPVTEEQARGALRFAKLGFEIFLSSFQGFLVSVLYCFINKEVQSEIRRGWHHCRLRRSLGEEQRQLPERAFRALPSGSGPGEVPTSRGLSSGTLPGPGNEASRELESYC

B1: Compound No. 0153 (peptide)
peptide: H[Aib]HGTFTSDYSILLEK([AEEA-AEEA-γGlu-C20 diacid])QAAQEFVEWLLA[dE]GPSSGAPPPS-NH2
modifications: N-terminus assumed
SMILES: CC[C@H](C)[C@H](NC(=O)[C@H](CO)NC(=O)[C@H](Cc1ccc(O)cc1)NC(=O)[C@H](CC(=O)O)NC(=O)[C@H](CO)NC(=O)[C@@H](NC(=O)[C@H](Cc1ccccc1)NC(=O)[C@@H](NC(=O)CNC(=O)[C@H](Cc1c[nH]cn1)NC(=O)C(C)(C)NC(=O)[C@@H](N)Cc1c[nH]cn1)[C@@H](C)O)[C@@H](C)O)C(=O)N[C@@H](CC(C)C)C(=O)N[C@@H](CC(C)C)C(=O)N[C@@H](CCC(=O)O)C(=O)N[C@@H](CCCCNC(=O)COCCOCCNC(=O)COCCOCCNC(=O)CC[C@H](NC(=O)CCCCCCCCCCCCCCCCCCC(=O)O)C(=O)O)C(=O)N[C@@H](CCC(N)=O)C(=O)N[C@@H](C)C(=O)N[C@@H](C)C(=O)N[C@@H](CCC(N)=O)C(=O)N[C@@H](CCC(=O)O)C(=O)N[C@@H](Cc1ccccc1)C(=O)N[C@H](C(=O)N[C@@H](CCC(=O)O)C(=O)N[C@@H](Cc1c[nH]c2ccccc12)C(=O)N[C@@H](CC(C)C)C(=O)N[C@@H](CC(C)C)C(=O)N[C@@H](C)C(=O)N[C@H](CCC(=O)O)C(=O)NCC(=O)N1CCC[C@H]1C(=O)N[C@@H](CO)C(=O)N[C@@H](CO)C(=O)NCC(=O)N[C@@H](C)C(=O)N1CCC[C@H]1C(=O)N1CCC[C@H]1C(=O)N1CCC[C@H]1C(=O)N[C@@H](CO)C(N)=O)C(C)C
B2: Compound No. 0152 (peptide)
peptide: H[Aib]HGTFTSDYSILLEK([AEEA-AEEA-γGlu-C20 diacid])QAAQEFVEWLLAGGPSSGAPPPS-NH2
modifications: N-terminus assumed
SMILES: CC[C@H](C)[C@H](NC(=O)[C@H](CO)NC(=O)[C@H](Cc1ccc(O)cc1)NC(=O)[C@H](CC(=O)O)NC(=O)[C@H](CO)NC(=O)[C@@H](NC(=O)[C@H](Cc1ccccc1)NC(=O)[C@@H](NC(=O)CNC(=O)[C@H](Cc1c[nH]cn1)NC(=O)C(C)(C)NC(=O)[C@@H](N)Cc1c[nH]cn1)[C@@H](C)O)[C@@H](C)O)C(=O)N[C@@H](CC(C)C)C(=O)N[C@@H](CC(C)C)C(=O)N[C@@H](CCC(=O)O)C(=O)N[C@@H](CCCCNC(=O)COCCOCCNC(=O)COCCOCCNC(=O)CC[C@H](NC(=O)CCCCCCCCCCCCCCCCCCC(=O)O)C(=O)O)C(=O)N[C@@H](CCC(N)=O)C(=O)N[C@@H](C)C(=O)N[C@@H](C)C(=O)N[C@@H](CCC(N)=O)C(=O)N[C@@H](CCC(=O)O)C(=O)N[C@@H](Cc1ccccc1)C(=O)N[C@H](C(=O)N[C@@H](CCC(=O)O)C(=O)N[C@@H](Cc1c[nH]c2ccccc12)C(=O)N[C@@H](CC(C)C)C(=O)N[C@@H](CC(C)C)C(=O)N[C@@H](C)C(=O)NCC(=O)NCC(=O)N1CCC[C@H]1C(=O)N[C@@H](CO)C(=O)N[C@@H](CO)C(=O)NCC(=O)N[C@@H](C)C(=O)N1CCC[C@H]1C(=O)N1CCC[C@H]1C(=O)N1CCC[C@H]1C(=O)N[C@@H](CO)C(N)=O)C(C)C
B3: Compound No. 0142 (peptide)
peptide: H[Aib]HGTFTSDLSI[αMeL]LEK([AEEA-AEEA-γGlu-C20 diacid])KAAQEFVEWLLA[dE]GPSSGAPPPS-NH2
modifications: N-terminus assumed
SMILES: CC[C@H](C)[C@H](NC(=O)[C@H](CO)NC(=O)[C@H](CC(C)C)NC(=O)[C@H](CC(=O)O)NC(=O)[C@H](CO)NC(=O)[C@@H](NC(=O)[C@H](Cc1ccccc1)NC(=O)[C@@H](NC(=O)CNC(=O)[C@H](Cc1c[nH]cn1)NC(=O)C(C)(C)NC(=O)[C@@H](N)Cc1c[nH]cn1)[C@@H](C)O)[C@@H](C)O)C(=O)N[C@@](C)(CC(C)C)C(=O)N[C@@H](CC(C)C)C(=O)N[C@@H](CCC(=O)O)C(=O)N[C@@H](CCCCNC(=O)COCCOCCNC(=O)COCCOCCNC(=O)CC[C@H](NC(=O)CCCCCCCCCCCCCCCCCCC(=O)O)C(=O)O)C(=O)N[C@@H](CCCCN)C(=O)N[C@@H](C)C(=O)N[C@@H](C)C(=O)N[C@@H](CCC(N)=O)C(=O)N[C@@H](CCC(=O)O)C(=O)N[C@@H](Cc1ccccc1)C(=O)N[C@H](C(=O)N[C@@H](CCC(=O)O)C(=O)N[C@@H](Cc1c[nH]c2ccccc12)C(=O)N[C@@H](CC(C)C)C(=O)N[C@@H](CC(C)C)C(=O)N[C@@H](C)C(=O)N[C@H](CCC(=O)O)C(=O)NCC(=O)N1CCC[C@H]1C(=O)N[C@@H](CO)C(=O)N[C@@H](CO)C(=O)NCC(=O)N[C@@H](C)C(=O)N1CCC[C@H]1C(=O)N1CCC[C@H]1C(=O)N1CCC[C@H]1C(=O)N[C@@H](CO)C(N)=O)C(C)C
B4: Compound No. 0139 (peptide)
peptide: H[Aib]HGTFTSDYSI[αMeL]LEK([AEEA-AEEA-γGlu-C20 diacid])KAAQEFVEWLLA[dE]GPSSGAPPPS-NH2
modifications: N-terminus assumed
SMILES: CC[C@H](C)[C@H](NC(=O)[C@H](CO)NC(=O)[C@H](Cc1ccc(O)cc1)NC(=O)[C@H](CC(=O)O)NC(=O)[C@H](CO)NC(=O)[C@@H](NC(=O)[C@H](Cc1ccccc1)NC(=O)[C@@H](NC(=O)CNC(=O)[C@H](Cc1c[nH]cn1)NC(=O)C(C)(C)NC(=O)[C@@H](N)Cc1c[nH]cn1)[C@@H](C)O)[C@@H](C)O)C(=O)N[C@@](C)(CC(C)C)C(=O)N[C@@H](CC(C)C)C(=O)N[C@@H](CCC(=O)O)C(=O)N[C@@H](CCCCNC(=O)COCCOCCNC(=O)COCCOCCNC(=O)CC[C@H](NC(=O)CCCCCCCCCCCCCCCCCCC(=O)O)C(=O)O)C(=O)N[C@@H](CCCCN)C(=O)N[C@@H](C)C(=O)N[C@@H](C)C(=O)N[C@@H](CCC(N)=O)C(=O)N[C@@H](CCC(=O)O)C(=O)N[C@@H](Cc1ccccc1)C(=O)N[C@H](C(=O)N[C@@H](CCC(=O)O)C(=O)N[C@@H](Cc1c[nH]c2ccccc12)C(=O)N[C@@H](CC(C)C)C(=O)N[C@@H](CC(C)C)C(=O)N[C@@H](C)C(=O)N[C@H](CCC(=O)O)C(=O)NCC(=O)N1CCC[C@H]1C(=O)N[C@@H](CO)C(=O)N[C@@H](CO)C(=O)NCC(=O)N[C@@H](C)C(=O)N1CCC[C@H]1C(=O)N1CCC[C@H]1C(=O)N1CCC[C@H]1C(=O)N[C@@H](CO)C(N)=O)C(C)C
B5: Compound No. 0143 (peptide)
peptide: H[Aib]HGTFTSDLSI[αMeL]LEK([AEEA-AEEA-γGlu-C20 diacid])KAAQEFVEWLLAGGPSSGAPPPS-NH2
modifications: N-terminus assumed
SMILES: CC[C@H](C)[C@H](NC(=O)[C@H](CO)NC(=O)[C@H](CC(C)C)NC(=O)[C@H](CC(=O)O)NC(=O)[C@H](CO)NC(=O)[C@@H](NC(=O)[C@H](Cc1ccccc1)NC(=O)[C@@H](NC(=O)CNC(=O)[C@H](Cc1c[nH]cn1)NC(=O)C(C)(C)NC(=O)[C@@H](N)Cc1c[nH]cn1)[C@@H](C)O)[C@@H](C)O)C(=O)N[C@@](C)(CC(C)C)C(=O)N[C@@H](CC(C)C)C(=O)N[C@@H](CCC(=O)O)C(=O)N[C@@H](CCCCNC(=O)COCCOCCNC(=O)COCCOCCNC(=O)CC[C@H](NC(=O)CCCCCCCCCCCCCCCCCCC(=O)O)C(=O)O)C(=O)N[C@@H](CCCCN)C(=O)N[C@@H](C)C(=O)N[C@@H](C)C(=O)N[C@@H](CCC(N)=O)C(=O)N[C@@H](CCC(=O)O)C(=O)N[C@@H](Cc1ccccc1)C(=O)N[C@H](C(=O)N[C@@H](CCC(=O)O)C(=O)N[C@@H](Cc1c[nH]c2ccccc12)C(=O)N[C@@H](CC(C)C)C(=O)N[C@@H](CC(C)C)C(=O)N[C@@H](C)C(=O)NCC(=O)NCC(=O)N1CCC[C@H]1C(=O)N[C@@H](CO)C(=O)N[C@@H](CO)C(=O)NCC(=O)N[C@@H](C)C(=O)N1CCC[C@H]1C(=O)N1CCC[C@H]1C(=O)N1CCC[C@H]1C(=O)N[C@@H](CO)C(N)=O)C(C)C

biological target: T2, human glucagon receptor (human, UniProt P47871 26-477); experiment: cell-based or functional assay
T2 sequence (P47871 26-477): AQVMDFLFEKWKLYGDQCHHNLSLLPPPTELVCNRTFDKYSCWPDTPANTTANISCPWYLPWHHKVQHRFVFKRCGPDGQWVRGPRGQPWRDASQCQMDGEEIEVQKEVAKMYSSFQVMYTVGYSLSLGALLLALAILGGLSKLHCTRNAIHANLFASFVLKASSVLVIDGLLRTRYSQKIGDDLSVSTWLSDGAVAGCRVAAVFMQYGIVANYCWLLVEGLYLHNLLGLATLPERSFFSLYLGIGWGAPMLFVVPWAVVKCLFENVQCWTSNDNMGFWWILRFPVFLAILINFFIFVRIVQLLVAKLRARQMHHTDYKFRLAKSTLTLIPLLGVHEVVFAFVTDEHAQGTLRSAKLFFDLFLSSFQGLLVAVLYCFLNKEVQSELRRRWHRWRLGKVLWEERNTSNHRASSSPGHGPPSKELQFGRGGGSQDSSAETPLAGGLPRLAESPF

Binder | Activity against human GCGR (EC50 nM)
B1 | 0.334 nM
B2 | 0.29 nM

biological target: T3, human glucagon-like peptide-1 receptor (human, UniProt P43220 24-463); experiment: cell-based or functional assay

Binder | Activity against human GLP-1R (EC50 nM)
B1 | 0.051 nM
B2 | 0.054 nM

biological target: T1, human glucose-dependent insulinotropic …; experiment: cell-based or functional assay

Binder | Activity against human GIPR (EC50 nM)
B1 | 0.01 nM
B2 | 0.009 nM

biological target: T2, human glucagon receptor; experiment: cell-based or functional assay; remark: another data set of the same source

Binder | Activity against human GCGR (EC50 nM)
H[Aib]HGTFTSDLSILLEK([AEEA-AEEA-γGlu-C20 diacid])KAAQEFVEWLLA[dE]GPSSGAPPPS-NH2 [Compound No. 0144] | 0.311 nM
B3 | 0.49 nM
B4 | 0.43 nM
B5 | 0.423 nM

biological target: T3, human glucagon-like peptide-1 receptor; experiment: cell-based or functional assay; remark: another data set of the same source

Binder | Activity against human GLP-1R (EC50 nM)
H[Aib]HGTFTSDLSILLEK([AEEA-AEEA-γGlu-C20 diacid])KAAQEFVEWLLA[dE]GPSSGAPPPS-NH2 [Compound No. 0144] | 0.035 nM
B3 | 0.058 nM
B4 | 0.043 nM
B5 | 0.09 nM

biological target: T1, human glucose-dependent insulinotropic …; experiment: cell-based or functional assay; remark: another data set of the same source

Binder | Activity against human GIPR (EC50 nM)
H[Aib]HGTFTSDLSILLEK([AEEA-AEEA-γGlu-C20 diacid])KAAQEFVEWLLA[dE]GPSSGAPPPS-NH2 [Compound No. 0144] | 0.012 nM
B3 | 0.007 nM
B4 | 0.007 nM
B5 | 0.004 nM
